Reference: article PMC12416549 (2024)
Where a chain is given by its changes, count along the chain named. Names and notes keep the numbering of the source.

T1: TNFR1 (Homo sapiens, UniProt P19438)
T1 chain: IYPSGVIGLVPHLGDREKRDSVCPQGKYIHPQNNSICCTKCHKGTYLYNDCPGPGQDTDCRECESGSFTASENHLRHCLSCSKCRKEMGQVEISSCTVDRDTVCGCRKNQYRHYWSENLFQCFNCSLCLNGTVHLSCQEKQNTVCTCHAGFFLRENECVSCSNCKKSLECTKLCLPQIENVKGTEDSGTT

B1: E7K (designed binder)
chain: SMEEEVKKAAKEYEKKKKEAIEKHLEKLKAKDKEAAERFLKELEEAAKEYAKDEAKTMSEEEAKRRAKKYKEKVLLSELSEEEQKEIKEAEEKLVRTILKYVEEAAK
B2: K93T (designed binder)
chain: B1 chain with K7E, K93T
B3: E26I (designed binder)
chain: B1 chain with K7E, E26I
B4: A47I (designed binder)
chain: B1 chain with K7E, A47I
B5: A9P (designed binder)
chain: B1 chain with K7E, A9P
B6: K8A (designed binder)
chain: B1 chain with K7E, K8A
B7: K68Q (designed binder)
chain: B1 chain with K7E, K68Q
B8: Q84W (designed binder)
chain: B1 chain with K7E, Q84W
B9: Y70A (designed binder)
chain: B1 chain with K7E, Y70A
B10: E54R (designed binder)
chain: B1 chain with K7E, E54R
B11: E19M (designed binder)
chain: B1 chain with K7E, E19M
B12: E12I (designed binder)
chain: B1 chain with K7E, E12I
B13: Y101H (designed binder)
chain: B1 chain with K7E, Y101H
B14: A30K (designed binder)
chain: B1 chain with K7E, A30K
B15: K48T (designed binder)
chain: B1 chain with K7E, K48T
B16: A63N (designed binder)
chain: B1 chain with K7E, A63N
B17: K85S (designed binder)
chain: B1 chain with K7E, K85S
B18: K52F (designed binder)
chain: B1 chain with K7E, K52F
B19: A47W (designed binder)
chain: B1 chain with K7E, A47W
B20: A47T (designed binder)
chain: B1 chain with K7E, A47T
B21: E54P (designed binder)
chain: B1 chain with K7E, E54P
B22: A20Q (designed binder)
chain: B1 chain with K7E, A20Q
B23: D32S (designed binder)
chain: B1 chain with K7E, D32S
B24: Q84Y (designed binder)
chain: B1 chain with K7E, Q84Y
B25: E45Y (designed binder)
chain: B1 chain with K7E, E45Y
B26: K29H (designed binder)
chain: B1 chain with K7E, K29H
B27: Y101W (designed binder)
chain: B1 chain with K7E, Y101W
B28: K18V (designed binder)
chain: B1 chain with K7E, K18V
B29: K100T (designed binder)
chain: B1 chain with K7E, K100T
B30: K107I (designed binder)
chain: B1 chain with K7E, K107I
B31: K33S (designed binder)
chain: B1 chain with K7E, K33S
B32: A10L (designed binder)
chain: B1 chain with K7E, A10L
B33: K29A (designed binder)
chain: B1 chain with K7E, K29A
B34: A10D (designed binder)
chain: B1 chain with K7E, A10D
B35: E83V (designed binder)
chain: B1 chain with K7E, E83V
B36: K73V (designed binder)
chain: B1 chain with K7E, K73V
B37: E37Q (designed binder)
chain: B1 chain with K7E, E37Q
B38: K52T (designed binder)
chain: B1 chain with K7E, K52T
B39: E7G (designed binder)
chain: B1 chain with K7G
B40: K107L (designed binder)
chain: B1 chain with K7E, K107L

Molecular target: T1, TNFR1
Assay: yeast display SC50

First: B1
Second: B2
The “apparent Kd (screen)” value of the first is 5.1-fold higher: 4.39 nM for the first, 0.869 nM for the second.

Compared with B3, B4 is 2.4-fold lower in “apparent Kd (screen)” value: 1.16 nM for the first, 0.49 nM for the second.

First: B5
Second: B6
The “apparent Kd (screen)” value of the first is 23-fold higher: 13.8 nM for the first, 0.593 nM for the second.

First: B7
Second: B8
The “apparent Kd (screen)” value of the first is 19-fold lower: 0.653 nM for the first, 12.5 nM for the second.

Compared with B9, B10 is 3.8-fold higher in “apparent Kd (screen)” value: 4.83 nM for the first, 18.3 nM for the second.

Going from B11 to B12, the “apparent Kd (screen)” value rises from 0.446 nM to 1.05 nM (2.4-fold).

First: B13
Second: B14
The “apparent Kd (screen)” value of the first is 2-fold lower: 0.49 nM for the first, 0.956 nM for the second.

First: B15
Second: B16
The “apparent Kd (screen)” value of the first is 13-fold lower: 0.49 nM for the first, 6.43 nM for the second.

Going from B17 to B18, the “apparent Kd (screen)” value rises from 0.593 nM to 1.05 nM (1.8-fold).

First: B19
Second: B20
The “apparent Kd (screen)” value of the first is 4.6-fold higher: 3 nM for the first, 0.653 nM for the second.

Compared with B21, B22 is 4.2-fold lower in “apparent Kd (screen)” value: 7.07 nM for the first, 1.69 nM for the second.

Compared with B23, B24 is 31-fold higher in “apparent Kd (screen)” value: 0.446 nM for the first, 13.8 nM for the second.

First: B25
Second: B26
The “apparent Kd (screen)” value of the first is 4.6-fold higher: 2.73 nM for the first, 0.593 nM for the second.

Compared with B27, B28 is 2.1-fold lower in “apparent Kd (screen)” value: 2.73 nM for the first, 1.27 nM for the second.

Compared with B29, B30 is 2.1-fold higher in “apparent Kd (screen)” value: 0.869 nM for the first, 1.86 nM for the second.

B31 and B32 are within 1.5-fold of each other in “apparent Kd (screen)” value: 0.869 nM for the first, 0.956 nM for the second.

B33 and B34 are within 1.5-fold of each other in “apparent Kd (screen)” value: 0.446 nM for the first, 0.49 nM for the second.

Going from B35 to B36, the “apparent Kd (screen)” value rises from 0.446 nM to 10.4 nM (23-fold).

B37 and B38 are within 1.5-fold of each other in “apparent Kd (screen)” value: 0.539 nM for the first, 0.446 nM for the second.

B39 and B40 are within 1.5-fold of each other in “apparent Kd (screen)” value: 3 nM for the first, 2.73 nM for the second.
